This is an account of results in patent publication US10822593B2, “Alcohol dehydrogenase mutant and application thereof in synthesis of diaryl chiral alcohols” (priority 2018, dated 2020).

Holding throughout (format): biochemical
Data set [1] addresses alcohol dehydrogenase KpADH, wild type, SEQ ID No. 2 (Vanderwaltozyma polyspora, UniProt A7TM80). Description: Kinetic analysis, reduction of CPMK by wild type KpADH. Particulars: substrate CPMK, coenzyme NADPH, pH 7.0, 30° C. The method, then:
(§1) Adopting a total reaction system of 200 μL, including: 1.0 mM NADPH, 1.0 mM substrate CPMK and sodium phosphate buffer (PBS, 100 mM, pH 7.0), fully and evenly mixing, maintaining at 30° C. for 2 min, adding an appropriate amount of enzyme solution, and detecting the change in light absorption at 340 nm.
(§2) The enzyme activity was calculated by the following formula: […]
(§3) in the formula, EW is the change in absorbance at 340 nm in 1 min; V is the volume of a reaction solution in mL; 6220 is the molar extinction coefficient of NADPH in L/(mol·cm); and 1 is the optical path distance in cm. One activity unit (U) corresponds to the amount of enzyme required to catalyze the oxidation of 1 μmol NADPH per minute under the above conditions.
(§4) A column used for purification was a nickel affinity column HisTrap FF crude, and purification was achieved through affinity chromatography using a histidine tag on recombinant protein. The nickel column was equilibrated with a solution A first, a crude enzyme solution was loaded, a penetrating peak was further eluted off using the solution A, and after equilibrium, a solution B (20 mM sodium phosphate, 500 mM NaCl, and 1000 mM imidazole, pH 7.4) was used for gradient elution to elute off the recombinant protein bound to the nickel column, so as to obtain the recombinant alcohol dehydrogenase mutant. The purified protein was subjected to activity measurement (CPMK as substrate, and NADPH as coenzyme) and SDS-PAGE analysis. […] The purified alcohol dehydrogenase protein was then replaced into a Tris-HCl (100 mM, pH 7.0) buffer using a Hi Trap Desalting column (GE Healthcare).
(§5) The activity of KpADH at different substrate concentrations and coenzyme concentrations was determined, and a double reciprocal curve was made based on the reciprocal of activity and substrate concentration to calculate kinetic parameters.

Data set [2] deals with O=C(c1ccc(Cl)cc1)c1ccccn1. In words: Kinetic analysis, reduction of CPMK by mutant M1. Particulars: other: substrate CPMK, coenzyme NADPH, pH 7.0, 30° C. The method, then: In an embodiment of the present disclosure, the mutant includes the substitution of valine for serine at position 196 of the alcohol dehydrogenase with the amino acid sequence shown in SEQ ID No. 2, which is named M1.
as §1, §2, §3, §4, §5

Data set [3] relates to O=C(c1ccc(Cl)cc1)c1ccccn1. In words: Kinetic analysis, reduction of CPMK by mutant M2. Particulars: other: substrate CPMK, coenzyme NADPH, pH 7.0, 30° C. Here is the method: In an embodiment of the present disclosure, the mutant includes the substitution of tryptophan for serine at position 196 of the alcohol dehydrogenase with the amino acid sequence shown in SEQ ID No. 2, which is named M2.
as §1, §2, §3, §4, §5

Data set [4] concerns O=C(c1ccc(Cl)cc1)c1ccccn1. In words: Kinetic analysis, reduction of CPMK by mutant M3. Particulars: other: substrate CPMK, coenzyme NADPH, pH 7.0, 30° C. The method, then:
In an embodiment of the present disclosure, the mutant includes the substitution of proline for serine at position 196 of the alcohol dehydrogenase with the amino acid sequence shown in SEQ ID No. 2, which is named M3.
as §1, §2, §3, §4, §5

Data set [5] relates to O=C(c1ccc(Cl)cc1)c1ccccn1. Description: Kinetic analysis, reduction of CPMK by mutant M4. Particulars: other: substrate CPMK, coenzyme NADPH, pH 7.0, 30° C. The method, then: In an embodiment of the present disclosure, the mutant includes the substitution of glycine for serine at position 196 of the alcohol dehydrogenase with the amino acid sequence shown in SEQ ID No. 2, which is named M4.
as §1, §2, §3, §4, §5

Data set [6] has as its system O=C(c1ccc(Cl)cc1)c1ccccn1. Description: Kinetic analysis, reduction of CPMK by mutant M5. Particulars: other: substrate CPMK, coenzyme NADPH, pH 7.0, 30° C. Here is the method:
In an embodiment of the present disclosure, the mutant includes the substitution of glycine for serine at position 196 of the alcohol dehydrogenase with the amino acid sequence shown in SEQ ID No. 2, and the substitution of valine for phenylalanine at position 161, which is named M5.
as §1, §2, §3, §4, §5

Data set [7] concerns O=C(c1ccc(Cl)cc1)c1ccccn1. Description: Kinetic analysis, reduction of CPMK by wild type KpADH. Particulars: other: substrate CPMK, coenzyme NADPH, pH 7.0, 30° C. Here is the method: as §1, §2, §3, §4, §5

The molecule `O=C(c1ccc(Cl)cc1)c1ccccn1` [CPMK, (4-chlorophenyl)-(pyridin-2-yl)-methanone] gave a Kcat/Km in data set [1] of 28900 M⁻¹ s⁻¹.

For “alcohol dehydrogenase KpADH (SEQ ID No. 2) mutant M1, S196V (Vanderwaltozyma polyspora DSM 70294; S196V)”, in data set [2], the Km came out at 720 µM, the Vmax came to 21.3 µmol/min/mg, the kcat came out at 17 s⁻¹ and the kcat/Km was 23600 M⁻¹ s⁻¹.

As to “alcohol dehydrogenase KpADH (SEQ ID No. 2) mutant M2, S196W (Vanderwaltozyma polyspora DSM 70294; S196W)”, in data set [3], the Km stood at 702 µM, the Vmax is 21.3 µmol/min/mg, the kcat came to 14.2 s⁻¹ and the kcat/Km came out at 20300 M⁻¹ s⁻¹.

Turning to “alcohol dehydrogenase KpADH (SEQ ID No. 2) mutant M3, S196P (Vanderwaltozyma polyspora DSM 70294; S196P)”, in data set [4], the Km was 604 µM, the Vmax is 22.3 µmol/min/mg, the kcat was found to be 14.8 s⁻¹ and the kcat/Km was determined as 24600 M⁻¹ s⁻¹.

On to “alcohol dehydrogenase KpADH (SEQ ID No. 2) mutant M4, S196G (Vanderwaltozyma polyspora DSM 70294; S196G)”, for which, in data set [5], the Km turned out to be 730 µM, the Vmax is 26.5 µmol/min/mg, the kcat was 17.6 s⁻¹ and the kcat/Km is 24100 M⁻¹ s⁻¹.

Regarding “alcohol dehydrogenase KpADH (SEQ ID No. 2) mutant M5, S196G/F161V (Vanderwaltozyma polyspora DSM 70294; F161V/S196G)”, in data set [6], the Km came out at 690 µM, the Vmax was found to be 17.7 µmol/min/mg, the kcat stood at 11.8 s⁻¹ and the kcat/Km was found to be 17100 M⁻¹ s⁻¹.

With “alcohol dehydrogenase KpADH, wild type, SEQ ID No. 2 (Vanderwaltozyma polyspora DSM 70294)”, in data set [7], the Michaelis-Menten constant (Km) came to 410 µM, the Vmax was 17.9 µmol/min/mg, the kcat is 11.8 s⁻¹ and the kcat/Km is 28900 M⁻¹ s⁻¹.

Broadly, the Km is the concentration of substrate that gives half-maximal velocity. In general, Vmax refers to the top rate of the reaction or transport when substrate is in excess. As a reminder, the kcat is the maximal rate divided by the concentration of active sites. A word on the kcat/Km: it is the turnover number divided by the Michaelis constant.
